From a protein production outcome set (Wang et al. 2014)

Test: label from the status in PepcDB records
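Also: failed if final PepcDB status was selected cloned or expressed and not failed if soluble or beyond.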

Row | Sequence | protein production
1 | MIYFCHAPNDRAIAEKIYFSLKQTGLTCWIPSQDIMAGQYYVEAIANAIEKSDIVVFIFSSHSNTSIQVIDELQKASSLNKTIIPFCVDRAMPSEPIEHYLSSPYKVDATIGLPDDNIAKLQNIIKQIYNQSSVHNANDINTVKDTFAPSNPLENNTNIIKDASDNNSQESIQFNGVINSANSQPPQNPNLPPQHQMNPNFNNTVNNMDRNMNYPIKQNVRPNPQVKSSNKIKIPLIIGGSIAGGIILLSILFMLGKNLLFSTLINSHRPSDNPVIGSNIRIDGSKYTEEEIIEFTKNAILELDRLQASREFYDTYAYNAPEYDLMRIQENVFFSLMDLDVVRFEEVAILGKNEKEHGIEYLLKVDFVCYADYEYTENNETVHRKGEALLYNNVVILETPNDGLKYLYMEGIFEDELNARNENLESSYREIAESGDVNTEDTIQTYLPDSTDEDTIMSVKDIVKKNDHKVVAVYVDVPGGQSQGSGFFIKDGVIVTNYHVIEGGKSAKILLSNGNYVDVEGVLYTDSDVDIAVLKLVNEVGIEPVTIGQARDSDKGSIAVAIGSPLGLFNTVSTGIISNFWEANGVNLIQISIPITHGNSGGALFNESGKLIGITSSGIGEANLNFAISSTHIIPICEDIKNIPYNQLNAVPLSSAGGNINSITRQAGSSNSNQSSSSGKSLLSSKYRFVNSDKPISNDATYTSDLQTIYDLALNKYYAKEDLYRDLDYAFDYILDYGTKYYLEYLEYILHETYIKEDVENFNKINESVLEVLNTTGEYIEFTADEIEIIGAGIKNDGTIDGIIVRALFYENSEPYVRSKFYFRANYDAWSYVDGFLYVGEVTEK | failed
2 | MIYGILSKNLGMPTPTFLVCPDVVKFENVGQIAVVNGMVYLGGSVGIDKSGTLHKGLEEQTRQTFDNIRKCLEYANSGLDYIVSLNIFLSTSLSDSEEARFNELYREVFCVPATRPCRCCVRAQLQEGLLVEVVNVVAAQK | not failed
3 | MIYLAITTLIWAFSFGLIGNALKGLDPLQIADTRLLLALIAFIPFMKFGNTNGKEKRQLILLGALQYGVMYTCYLSAFRYLPSHLVALFSVLTPLYIVIINDLRQRSFTPWYLVATVLSVFGAAIIKMGNIDSNEIWLGFGLMQVANLAFAFGQVYYRDWKRSRAHITDSSIFGFLYLGAAIFTTIATLLISHQPPIPLNATPTQWFVLVYMGIIASGLCFFLWNKGGTQTSVGVLATFNNAVVPLAMFASLFIFGEAKGGTPEELVRLTIGSLLIVSALLIAKRK | failed
4 | MIYLFLALLSYACTYCLVGLLIQGQLADVAEGLRHRPDAPTPGEYLREVGPRARQARRQYTLIAGSVLAVLACLIASGFG | failed
5 | MIYLHAIDPIAFSLGPVQVHWYGLMYLAAFFSAWALGRSRILRGRLPGVDMDGFSDLLFYGMLGVVLGGRIGYMLFYAFETFLANPLILFKVWEGGMSFHGGLLGVLIACWLWARKHRLHFFDVMDFVAPLVPLGLGFGRLGNFVGGELWGKFTQAGWGVIFPHAPELADRLPAQIQAQYAAGALNQFARHPSQLYEAALEGVVMFVVLWTFSMKPRARYAVSGLFALLYGVFRFIVEFVRVPDAPIGYLAFNWLTMGQILSLPLVAVGLVLLAMSRRAPVLQPVLPVPAGVEAAK | failed
6 | MIYLLLGAVIITFLLWPRGRALLKGDGWRVGAGAAAIAAFAVAAYATIRGAWGTGIVLGVIGLWSVTEARRRPIVRREVVHPPKPELSLSEARAILGVGPEASLAEVKAAYNRLIQMAHPDKGGTEGLAAQLNAARDRLIKPRGSARVEP | failed
7 | MIYWLYLAVFFLLSALDAKEIAMQRFDKQNHKIFEILADKVSAKDNVITASGNAILLNYDVYILADKVRYDTKTKEALLEGNIKVYRGEGLLVKTDYVKLSLNEKYEIIFPFYVQDSVSGIWVSADIASGKDQKYKVKNMSTSGCSIDNPIWHVNATSGSFNMQKSHLSMWNPKIYVGDIPVLYLPYIFMSTSNKRTTGFLYPEFGTSNLDGFIYLQPFYLAPKNSWDMTFTPQIRYKRGFGLNFEARYINSKNDRFLFNARYFRNYTQYVKRYDLRNQNIYGFEFLSSSRDTLQKYFHLKSNIDNGHYIDFLYMNDLDYVRFEKVNKRITDATHMSRANYYLQTENNYYGLNIKYFLNLNKINNNRTFQSVPNLQYHKYLNSLYFRNLLYSVDYQFRNTAREIGYGYVQNALNVPVGLQFSLFKKYLSLGLWNDLQLSNVALMQSKNSFVPTIPNESREFGNFVSSNFSMYVNTDLAREYNKLFHTIQLEAIFNIPYYTFKNGLFSQNMYALSAQALNSYTSPLLRDYDYQGRLYDSVWNPSSILPSNASNKTVDLTLTQYLYGLGGQELLYFKISQLINLDDKVSPFRMPLESKIGFSPLTGLNIFGNVFYSFYQNRLEEISVNANYQRKFLSFNLSYFLKNNFSSGINSIVENLRII | failed
8 | MKAADEPAYLTVGTDVSAKYRGAFCEAKIKTVKRLVKVKVLLKQDNTTQLVQDDQVKGPLRVGAIVETRTSDGSFQEAIISKLTDASWYTVVFDDGDERTLRRTSLCLKGERHFAESETLDQLPLTNPEHFGTPVIAKKTNRGRRSSLPVTEDEKEEESSEEEDEDKRRLNDELLGKVVSVVSATERTEWYPALVISPSCNDDITVKKDQCLVRSFIDSKFYSIARKDIKEVDILNLPESELSTKPGLQKASIFLKTRVVPDNWKMDISEILESSSSDDEDGPAEENDEEKEKEAKKTEEEVPEEELDPEERDNFLQQLYKFMEDRGTPINKPPVLGYKDLNLFKLFRLVYHQGGCDNIDSGAVWKQIYMDLGIPILNSAASYNVKTAYRKYLYGFEEYCRSANIQFRTVHHHEPKVKEEKKDLEESMEEALKLDQEMPLTEVKSEPEENIDSNSESEREEIELKSPRGRRRIARDVNSIKKEIEEEKTEDKLKDNDTENKDVDDDYETAEKKENELLLGRKNTPKQKEKKIKKQEDSDKDSDEEEEKSQEREETESKCDSEGEEDEEDMEPCLTGTKVKVKYGRGKTQKIYEASIKSTEIDDGEVLYLVHYYGWNVRYDEWVKADRIIWPLDKGGPKKKQKKKAKNKEDSEVDEKRDEERQKSKRGRPPLKSTLSSNMPYGLSKTANSEGKSDSCSSDSETEDALEKNLINEELSLKDELEKNENLNDDKLDEENPKISAHILKENDRTQMQPLETLKLEVGENEQIVQIFGNKMEKTEEVKKEAEKSPKGKGRRSKTKDLSLEIIKISSFGQNEAGSEPHIEAHSLELSSLDNKNFSSATEDEIDQCVKEKKLKRKILGQSSPEKKIRIENGMEMTNTVSQERTSDCIGSEGMKNLNFEQHFERENEGMPSLIAESNQCIQQLTSERFDSPAEETVNIPLKEDEDAMPLIGPETLVCHEVDLDDLDEKDKTSIEDVAVESSESNSLVSIPPALPPVVQHNFSVASPLTLSQDESRSVKSESDITIEVDSIAEESQEGLCERESANGFETNVASGTCSIIVQERESREKGQKRPSDGNSGLMAKKQKRTPKRTSAAAKNEKNGTGQSSDSEDLPVLDNSSKCTPVKHLNVSKPQKLARSPARISPHIKDGEKDKHREKHPNSSPRTYKWSFQLNELDNMNSTERISFLQEKLQEIRKYYMSLKSEVATIDRRRKRLKKKDREVSHAGASMSSASSDTGMSPSSSSPPQNVLAVECR | not failed
9 | MKAALLDQVARVGKALANGRRLQILDLLAQGERAVEAIATATGMNLTTASANLQALKSGGLVEARREGTRQYYRIAGEDVARLFALVQVVADEHLADVAVLEHHHHHH | failed
10 | MKADDSRFFSFLKDRIGLDVTSVGEAIIERALRQRAKAANCADSDDYWHLLISSPQEQQALIEAVIVPETWFFRYPESFVTLGMLARERIASLAGVRPLRILSLPCSTGEEPYSIAMALFDAGVDARQFKVDAVDISPVSIAKAVHGIYGKNSFRGSDLSYRERFFSAITDGFEVADEIRACVNFQPGNLLDPKLASQVPYDIVFCRNLVIYFDRPTQQRVFQVLKQLTREDGLLFIGPAEGNLLAGIGMRSIGIAQSFAFRHAPAEAAAPAQVQAAAPIAPRPVVEAPARSPAPTPRPAARTSAAFAPLAKPAAAAGNSEVSALLDTIAGLANEGKSAEARAACERYLQQHEPVAQVFYWLGLLSEVEGAVVQAQGFYRKALYLQPQHRESLAQLAALLAAQGDSAGARRLQDRAARGANKQGNH | failed
11 | MKAFTVHQAKTHLSRLLKAVEEGEEVVILRGKTPVARLVPYRKGKRPLGFVPGKLPESFFEPLPEEELALWEGATS | not failed
12 | MKAKGNQKTKVNIVTLGCSKNLVDSENLLTQLRGNGIEAEHESKNDNSNVVVINTCGFIDNAKQESIDTILRYIDAKENGLIDKIYVSGCLSQRYKDDMEREMPQVDAFFGSNELPAILKKFRADYKHELVGERLLTTPSHYAYVKIAEGCDRPCSFCAIPVMRGKHVSTPMEDLVKQAKGMAAKGTKELILIAQDLTYYGLDIYKKRNLSDLLKNLSDVEGIDWIRLQYAYPSGFPLDVLDVMAERSNICKYIDMPLQHGSSDMLKLMRRGIDRPKTEDLIKTIRDKVPGIAFRTTMIIGHPGETEKDFDELCSFVEEQRFDRLGAFTYSHEEHTHSYSMEDTIPQEEKEERQATIMSIQEGISAELNEKKIGNTYKVLFDRKEGGYFIGRTEHDSPEVDNEVMVSAKDQYVRIGDFANVKINDAAEFDLFGEIVK | failed
13 | MKALASRGTRNHLAGEAAENSVLRDYERRGYHLVRRRWRGRCGEIDLIARSGDEVVFVEVKQSRDFARAAESLGARQMKRLHAAAAEFLAEEPDGQLTPMRFDVALVDGTGRLEIVENAFGHG | failed
14 | MKALIFAAAGLLLLLPTFCQSGMENDTNNLAKPTLPIKTFRGAPPNSFEEFPFSALEGWTGATITVKIKCPEESASHLHVKNATMGYLTSSLSTKLIPAIYLLVFVVGVPANAVTLWMLFFRTRSICTTVFYTNLAIADFLFCVTLPFKIAYHLNGNNWVFGEVLCRATTVIFYGNMYCSILLLACISINRYLAIVHPFTYRGLPKHTYALVTCGLVWATVFLYMLPFFILKQEYYLVQPDITTCHDVHNTCESSSPFQLYYFISLAFFGFLIPFVLIIYCYAAIIRTLNAYDHRWLWYVKASLLILVIFTICFAPSNIILIIHHANYYYNNTDGLYFIYLIALCLGSLNSCLDPFLYFLMSKTRNHSTAYLTK | failed
15 | MKALIFAAGFGERMRPLTEHTPKPLLSVGGTPLIVWHLRKLAALGVDEVVINTSWLAEQFPQVLGDGSAFGLRLTYSYEGATPLETGGGMLHALPLLGDAPFLLVNGDIWTDFDFARLSHAPDGLAQLVLVDQPSYATRADFALDADGNVRADLPASLTYSGIGMYRPALLRDWQSVIGQLPEQPCTAPRFALAPILRAQMTARLINGIHHSGRWTDVGTPQRLAELDAQLLRDGS | failed
16 | MKALNDSYDVVVVGAGPAGSMASYNASKNGAKTLLIEKSQEIGTPVRCAEAVPRLEDFGINPDPSFVKSYIRGGYLIAPNGKKIVVKGGKTDGYVVERKVFDKFLAIRSGQAGTQIAVKSRVTKIEKTDDGYNVFVNYLGDEYIVKSKIVIAADGVESNIAEYAGLKSKKNPKEICSCAEYEMTNVKLLNNEMMEFYFGDICPKGYIWLFPKGDTVNVGIGVIDSKKRAIDYLDEFLTHPLVEGRLDNAVPVEFKVGGDPVGGPIKKTVADNIMVVGDAAGHVSPLTGGGIGLSMDCGLMAGDVAAQSIKAENYSEEFLDLYEKKWKEKYYKLLMNDLKYKNILQKLSDDELNAIANSIPENLEEVDVGKLAIKIVAKAPSLLRHFKELL | failed
17 | MKALTVNKTIFILVIAASLLLGAAVGYIAHSLTAGGGGVVVTGSKAVSTGTSIGVYLTIKNNTNTTSCIVGADIAESVSGKVVVDIHKTVEEGGRVVMMPAGPICLGPGETLEMRQGPGSYHVMIMGDRSAIEKITEDGVVEIKVLVEQQVDAPITGP | failed
